Our source for the EC50 values is patent US20250277023A1 (published 2025).

B1: R1086: TIGIT_VH_IL15RA (R35C)/TIGIT_VL_IL15 (E93C)/PD-L1-Fab (bispecific antibody)
chain 1: QVQLVQSGAEVKKPGSSVKVSCKASGYSFTSYWMNWVRQAPGQGLEWIGMIRPSDSETRLNQMFKDRVTITVDKSTSTAYMELSSLRSEDTAVYYCAGIHDYGHGAYWGQGTLVTVSSGGGGSGGGGSGGGGSGGGGSGITCPPPMSVEHADIWVKSYSLYSRERYICNSGFKCKAGTSSLTECVLNKATNVAHWTTPSLKCIRDPALVHQRPAPPSTVTTAGVTPQPESLSPSGKEPAASSPSSNNTAATTAAIVPGSQLMPSKSPSTGTTEISSHESSHGTPSQTTAKNWELTASASHQPPGVYPQGHSDTTEPKSSDKTHTCPPCPAPELLGGPSVFLFPPKPKDTLMISRTPEVTCVVVDVSHEDPEVKFNWYVDGVEVHNAKTKPREEQYNSTYRVVSVLTVLHQDWLNGKEYKCKVSNKALPAPIEKTISKAKGQPREPQVYTLPPSREEMTKNQVSLTCRVKGFYPSDIAVEWESNGQPENNYKTTPPVLKSDGSFFLASKLTVDKSRWQQGNVFSCSVMHEALHNHYTQKSLSLSPGK
chain 2: DIQMTQSPSSLSASVGDRVTITCRASENIYSNLAWYQQKPGKSPKLLVYAASHLPDGVPSRFSGSGSGTDYSLTISSLQPEDFATYYCQHFWGTPRTFGQGTKLEIKGGGGSGGGGSGGGGSGGGGSGNWVNVISDLKKIEDLIQSMHIDATLYTESDVHPSCKVTAMKCFLLELQVISLESGDASIHNTVQDLIILANNSLSSNGNVTESGCKECEELECKNIKEFLQSFVHIVQMFINTS
heavy: QVQLQESGPGLVKPSETLSLTCAVYGDSITSGYWNWIRKPPGKGLEYIGYISYTGSTYQNPSLKSRITMSRDTSKNQYYLKLSSVTAADTAVYYCARSRAWIRTYFDYWGQGTLVTVSSASTKGPSVFPLAPSSKSTSGGTAALGCLVKDYFPEPVTVSWNSGALTSGVHTFPAVLQSSGLYSLSSVVTVPSSSLGTQTYICNVNHKPSNTKVDKRVEPKSCDKTHTCPPCPAPELLGGPSVFLFPPKPKDTLMISRTPEVTCVVVDVSHEDPEVKFNWYVDGVEVHNAKTKPREEQYNSTYRVVSVLTVLHQDWLNGKEYKCKVSNKALPAPIEKTISKAKGQPREPQVYTLPPSREEMTKNQVSLWCLVKGFYPSDIAVEWESNGQPENNYDTTPPVLDSDGSFFLYSDLTVDKSRWQQGNVFSCSVMHEALHNHYTQKSLSLSPGK
light: DIQMTQSPSSLSASVGDRVTITCSVSSSISSSNLHWYQQKPGKAPKPWIYGTSNLASGVPSRFSGSGSGTDYTLTISSLQPEDFATYYCQQWSSYPLTFGQGTKLEIKRTVAAPSVFIFPPSDEQLKSGTASVVCLLNNFYPREAKVQWKVDNALQSGNSQESVTEQDSKDSTYSLSSTLTLSKADYEKHKVYACEVTHQGLSSPVTKSFNRGEC
B2: R1085: TIGIT_VH_IL15RA (P67C)/TIGIT_VL_IL15 (E90C)/PD-L1-Fab (bispecific antibody)
chain 1: QVQLVQSGAEVKKPGSSVKVSCKASGYSFTSYWMNWVRQAPGQGLEWIGMIRPSDSETRLNQMFKDRVTITVDKSTSTAYMELSSLRSEDTAVYYCAGIHDYGHGAYWGQGTLVTVSSGGGGSGGGGSGGGGSGGGGSGITCPPPMSVEHADIWVKSYSLYSRERYICNSGFKRKAGTSSLTECVLNKATNVAHWTTPSLKCIRDCALVHQRPAPPSTVTTAGVTPQPESLSPSGKEPAASSPSSNNTAATTAAIVPGSQLMPSKSPSTGTTEISSHESSHGTPSQTTAKNWELTASASHQPPGVYPQGHSDTTEPKSSDKTHTCPPCPAPELLGGPSVFLFPPKPKDTLMISRTPEVTCVVVDVSHEDPEVKFNWYVDGVEVHNAKTKPREEQYNSTYRVVSVLTVLHQDWLNGKEYKCKVSNKALPAPIEKTISKAKGQPREPQVYTLPPSREEMTKNQVSLTCRVKGFYPSDIAVEWESNGQPENNYKTTPPVLKSDGSFFLASKLTVDKSRWQQGNVFSCSVMHEALHNHYTQKSLSLSPGK
chain 2: DIQMTQSPSSLSASVGDRVTITCRASENIYSNLAWYQQKPGKSPKLLVYAASHLPDGVPSRFSGSGSGTDYSLTISSLQPEDFATYYCQHFWGTPRTFGQGTKLEIKGGGGSGGGGSGGGGSGGGGSGNWVNVISDLKKIEDLIQSMHIDATLYTESDVHPSCKVTAMKCFLLELQVISLESGDASIHNTVQDLIILANNSLSSNGNVTESGCKECECLEEKNIKEFLQSFVHIVQMFINTS
heavy: QVQLQESGPGLVKPSETLSLTCAVYGDSITSGYWNWIRKPPGKGLEYIGYISYTGSTYQNPSLKSRITMSRDTSKNQYYLKLSSVTAADTAVYYCARSRAWIRTYFDYWGQGTLVTVSSASTKGPSVFPLAPSSKSTSGGTAALGCLVKDYFPEPVTVSWNSGALTSGVHTFPAVLQSSGLYSLSSVVTVPSSSLGTQTYICNVNHKPSNTKVDKRVEPKSCDKTHTCPPCPAPELLGGPSVFLFPPKPKDTLMISRTPEVTCVVVDVSHEDPEVKFNWYVDGVEVHNAKTKPREEQYNSTYRVVSVLTVLHQDWLNGKEYKCKVSNKALPAPIEKTISKAKGQPREPQVYTLPPSREEMTKNQVSLWCLVKGFYPSDIAVEWESNGQPENNYDTTPPVLDSDGSFFLYSDLTVDKSRWQQGNVFSCSVMHEALHNHYTQKSLSLSPGK
light: DIQMTQSPSSLSASVGDRVTITCSVSSSISSSNLHWYQQKPGKAPKPWIYGTSNLASGVPSRFSGSGSGTDYTLTISSLQPEDFATYYCQQWSSYPLTFGQGTKLEIKRTVAAPSVFIFPPSDEQLKSGTASVVCLLNNFYPREAKVQWKVDNALQSGNSQESVTEQDSKDSTYSLSSTLTLSKADYEKHKVYACEVTHQGLSSPVTKSFNRGEC
B3: R1084: PD-L1_VH (G44C)_IL15RA/PD-L1_VL(Q101C)_IL15/TIGIT-Fab (bispecific antibody)
chain 1: QVQLQESGPGLVKPSETLSLTCAVYGDSITSGYWNWIRKPPGKCLEYIGYISYTGSTYQNPSLKSRITMSRDTSKNQYYLKLSSVTAADTAVYYCARSRAWIRTYFDYWGQGTLVTVSSGGGGSGGGGSGGGGSGGGGSGITCPPPMSVEHADIWVKSYSLYSRERYICNSGFKRKAGTSSLTECVLNKATNVAHWTTPSLKCIRDPALVHQRPAPPSTVTTAGVTPQPESLSPSGKEPAASSPSSNNTAATTAAIVPGSQLMPSKSPSTGTTEISSHESSHGTPSQTTAKNWELTASASHQPPGVYPQGHSDTTEPKSSDKTHTCPPCPAPELLGGPSVFLFPPKPKDTLMISRTPEVTCVVVDVSHEDPEVKFNWYVDGVEVHNAKTKPREEQYNSTYRVVSVLTVLHQDWLNGKEYKCKVSNKALPAPIEKTISKAKGQPREPQVYTLPPSREEMTKNQVSLTCRVKGFYPSDIAVEWESNGQPENNYKTTPPVLKSDGSFFLASKLTVDKSRWQQGNVFSCSVMHEALHNHYTQKSLSLSPGK
chain 2: DIQMTQSPSSLSASVGDRVTITCSVSSSISSSNLHWYQQKPGKAPKPWIYGTSNLASGVPSRFSGSGSGTDYTLTISSLQPEDFATYYCQQWSSYPLTFGCGTKLEIKGGGGSGGGGSGGGGSGGGGSGNWVNVISDLKKIEDLIQSMHIDATLYTESDVHPSCKVTAMKCFLLELQVISLESGDASIHNTVQDLIILANNSLSSNGNVTESGCKECEELEEKNIKEFLQSFVHIVQMFINTS
heavy: QVQLVQSGAEVKKPGSSVKVSCKASGYSFTSYWMNWVRQAPGQGLEWIGMIRPSDSETRLNQMFKDRVTITVDKSTSTAYMELSSLRSEDTAVYYCAGIHDYGHGAYWGQGTLVTVSSASTKGPSVFPLAPSSKSTSGGTAALGCLVKDYFPEPVTVSWNSGALTSGVHTFPAVLQSSGLYSLSSVVTVPSSSLGTQTYICNVNHKPSNTKVDKRVEPKSCDKTHTCPPCPAPELLGGPSVFLFPPKPKDTLMISRTPEVTCVVVDVSHEDPEVKFNWYVDGVEVHNAKTKPREEQYNSTYRVVSVLTVLHQDWLNGKEYKCKVSNKALPAPIEKTISKAKGQPREPQVYTLPPSREEMTKNQVSLWCLVKGFYPSDIAVEWESNGQPENNYDTTPPVLDSDGSFFLYSDLTVDKSRWQQGNVFSCSVMHEALHNHYTQKSLSLSPGK
light: DIQMTQSPSSLSASVGDRVTITCRASENIYSNLAWYQQKPGKSPKLLVYAASHLPDGVPSRFSGSGSGTDYSLTISSLQPEDFATYYCQHFWGTPRTFGQGTKLEIKRTVAAPSVFIFPPSDEQLKSGTASVVCLLNNFYPREAKVQWKVDNALQSGNSQESVTEQDSKDSTYSLSSTLTLSKADYEKHKVYACEVTHQGLSSPVTKSFNRGEC

One may read the EC50 as the concentration that produces a half-maximal response. A higher EC50 goes with lower potency in that assay.

PD-L1 (on CHO-PD-L1 cells), sequence (Q9NZQ7 19-290): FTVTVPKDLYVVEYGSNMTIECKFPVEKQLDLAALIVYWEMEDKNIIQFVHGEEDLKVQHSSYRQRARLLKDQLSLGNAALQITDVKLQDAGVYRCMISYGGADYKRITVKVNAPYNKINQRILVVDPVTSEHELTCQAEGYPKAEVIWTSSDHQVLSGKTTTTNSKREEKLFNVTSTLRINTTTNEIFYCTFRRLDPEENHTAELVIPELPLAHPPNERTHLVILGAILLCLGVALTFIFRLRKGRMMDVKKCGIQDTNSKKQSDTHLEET

This assay concerns the target PD-L1 (on CHO-PD-L1 cells) (UniProt Q9NZQ7 19-290). Nature of the assay: FACS binding; Fig. 24.
B1 registered a concentration for a half-maximal effect (EC50) of 2.02 nM. The figure for B2 is 3.2 nM; for B3 it is 5.85 nM.
